# Tested on: Escherichia coli TOP10
# Assay: shrunken log2 fold change of peptide-encoding DNA abundance (4.5 h post-induction vs induction); higher = less antimicrobial activity (less host growth inhibition)
# Settings: time post-induction: 4.5 h; library: site-saturation at positions 5, 18, 19, 20
# 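Also: peptides expressed intracellularly from a pBAD plasmid library in pooled LB shake-flask culture, induced with 0.3% L-arabinose, DNA abundance read by NGS, three biological replicates, DESeq2 with apeglm shrinkage.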
row,Sequence,shrunken log2 fold change
1,RRIRIRPPRLPRPRPRPMREPRP,0.0761
2,RRIRSRPPRLPRPRPRPLNIPRP,-0.422
3,RRIRQRPPRLPRPRPRPAFHPRP,-0.0711
4,RRIRIRPPRLPRPRPRPMPNPRP,-0.0781
5,RRIRLRPPRLPRPRPRPATIPRP,-0.0972
6,RRIRERPPRLPRPRPRPNMPPRP,-0.706
7,RRIRQRPPRLPRPRPRPQQCPRP,-0.132
8,RRIRERPPRLPRPRPRPWVAPRP,-0.00272
9,RRIRDRPPRLPRPRPRPQGFPRP,-0.00674
10,RRIRCRPPRLPRPRPRPSCNPRP,0.329
11,RRIRNRPPRLPRPRPRPYHHPRP,-0.207
12,RRIRTRPPRLPRPRPRPWNKPRP,-0.594
13,RRIRWRPPRLPRPRPRPFWVPRP,0.00637
14,RRIRQRPPRLPRPRPRPTPNPRP,0.333
15,RRIRTRPPRLPRPRPRPKRKPRP,0.0722
16,RRIRQRPPRLPRPRPRPEGIPRP,0.0201
17,RRIRCRPPRLPRPRPRPGTFPRP,-0.0668
18,RRIRIRPPRLPRPRPRPSFPPRP,-0.779
19,RRIRIRPPRLPRPRPRPGVRPRP,0.135
20,RRIRMRPPRLPRPRPRPITSPRP,0.0639
21,RRIRLRPPRLPRPRPRPKYLPRP,-0.55
22,RRIRPRPPRLPRPRPRPDPWPRP,-0.0279
23,RRIRRRPPRLPRPRPRPSVWPRP,0.703
24,RRIRLRPPRLPRPRPRPHWSPRP,0.0161
25,RRIRWRPPRLPRPRPRPVMPPRP,0.15

row,Sequence,shrunken log2 fold change
1,RRIRKRPPRLPRPRPRPHQVPRP,-0.182
2,RRIRDRPPRLPRPRPRPTWNPRP,-0.07
3,RRIRTRPPRLPRPRPRPGLHPRP,-0.102
4,RRIRFRPPRLPRPRPRPGKMPRP,-0.0519
5,RRIRMRPPRLPRPRPRPDAQPRP,2.65
6,RRIRLRPPRLPRPRPRPCIHPRP,-0.392
7,RRIRHRPPRLPRPRPRPINPPRP,-0.0815
8,RRIRWRPPRLPRPRPRPFNLPRP,0.0233
9,RRIRHRPPRLPRPRPRPWDCPRP,-0.00608
10,RRIRKRPPRLPRPRPRPACGPRP,0.845
11,RRIRLRPPRLPRPRPRPLSCPRP,-0.0916
12,RRIRLRPPRLPRPRPRPALLPRP,0.295
13,RRIRKRPPRLPRPRPRPPDYPRP,0.145
14,RRIRLRPPRLPRPRPRPNCMPRP,-0.415
15,RRIRLRPPRLPRPRPRPIPLPRP,0.0264
16,RRIRQRPPRLPRPRPRPLLDPRP,0.525
17,RRIRWRPPRLPRPRPRPAAEPRP,1.21
18,RRIRGRPPRLPRPRPRPCILPRP,0.0804
19,RRIRTRPPRLPRPRPRPCWEPRP,0.203
20,RRIRQRPPRLPRPRPRPKCAPRP,0.16
21,RRIRNRPPRLPRPRPRPRLLPRP,0.0984
22,RRIRMRPPRLPRPRPRPMHKPRP,0.413
23,RRIRFRPPRLPRPRPRPCTVPRP,-0.318
24,RRIRGRPPRLPRPRPRPPCFPRP,0.456
25,RRIRKRPPRLPRPRPRPMEPPRP,0.0318

row,Sequence,shrunken log2 fold change
1,RRIRLRPPRLPRPRPRPGHYPRP,-0.0695
2,RRIRIRPPRLPRPRPRPFYNPRP,-0.756
3,RRIRHRPPRLPRPRPRPRYMPRP,-0.559
4,RRIRPRPPRLPRPRPRPMTMPRP,-0.469
5,RRIRTRPPRLPRPRPRPESAPRP,0.0458
6,RRIRKRPPRLPRPRPRPIQTPRP,0.0355
7,RRIRDRPPRLPRPRPRPRMIPRP,-0.237
8,RRIRCRPPRLPRPRPRPEDTPRP,-0.146
9,RRIRFRPPRLPRPRPRPIEFPRP,0.0129
10,RRIRCRPPRLPRPRPRPWPRPRP,0.398
11,RRIRLRPPRLPRPRPRPHHYPRP,-0.628
12,RRIRERPPRLPRPRPRPQVSPRP,-0.0262
13,RRIRSRPPRLPRPRPRPCKKPRP,-0.121
14,RRIRCRPPRLPRPRPRPQSDPRP,-0.69
15,RRIRNRPPRLPRPRPRPESNPRP,0.0856
16,RRIRCRPPRLPRPRPRPSALPRP,-0.0403
17,RRIRGRPPRLPRPRPRPPKCPRP,1.63
18,RRIRKRPPRLPRPRPRPPDKPRP,0.474
19,RRIRTRPPRLPRPRPRPDYFPRP,-0.153
20,RRIRCRPPRLPRPRPRPRSTPRP,0.0137
21,RRIRYRPPRLPRPRPRPKDWPRP,-0.176
22,RRIRHRPPRLPRPRPRPQARPRP,0.225
23,RRIRARPPRLPRPRPRPPTHPRP,0.398
24,RRIRMRPPRLPRPRPRPIKSPRP,-0.0237
25,RRIRRRPPRLPRPRPRPIIDPRP,-0.125

row,Sequence,shrunken log2 fold change
1,RRIRKRPPRLPRPRPRPNCCPRP,0.179
2,RRIRLRPPRLPRPRPRPLQCPRP,0.121
3,RRIRERPPRLPRPRPRPGWDPRP,0.0203
4,RRIRRRPPRLPRPRPRPTRKPRP,0.498
5,RRIRYRPPRLPRPRPRPTVTPRP,-0.283
6,RRIRRRPPRLPRPRPRPVKHPRP,0.25
7,RRIRCRPPRLPRPRPRPYYPPRP,-1.27
8,RRIRLRPPRLPRPRPRPMIQPRP,-0.139
9,RRIRERPPRLPRPRPRPIQCPRP,0.0885
10,RRIRMRPPRLPRPRPRPLQKPRP,1.02
11,RRIRGRPPRLPRPRPRPRHCPRP,0.764
12,RRIRVRPPRLPRPRPRPEQNPRP,0.316
13,RRIRNRPPRLPRPRPRPHNIPRP,-0.54
14,RRIRTRPPRLPRPRPRPHVLPRP,-0.193
15,RRIRQRPPRLPRPRPRPTPQPRP,0.89
16,RRIRNRPPRLPRPRPRPYWLPRP,-0.55
17,RRIRQRPPRLPRPRPRPKKQPRP,-0.286
18,RRIRDRPPRLPRPRPRPLTHPRP,0.179
19,RRIRHRPPRLPRPRPRPQKMPRP,-0.132
20,RRIRKRPPRLPRPRPRPRGEPRP,0.764
21,RRIRRRPPRLPRPRPRPIDLPRP,-0.115
22,RRIRKRPPRLPRPRPRPRCFPRP,0.412
23,RRIRYRPPRLPRPRPRPTHHPRP,-0.509
24,RRIRARPPRLPRPRPRPNWKPRP,-0.0233
25,RRIRFRPPRLPRPRPRPWFNPRP,-0.897

row,Sequence,shrunken log2 fold change
1,RRIRERPPRLPRPRPRPNNHPRP,-0.933
2,RRIRYRPPRLPRPRPRPGGRPRP,-0.019
3,RRIRDRPPRLPRPRPRPCDIPRP,-0.11
4,RRIRGRPPRLPRPRPRPDDVPRP,0.966
5,RRIRCRPPRLPRPRPRPTLRPRP,0.15
6,RRIRNRPPRLPRPRPRPRGNPRP,0.26
7,RRIRGRPPRLPRPRPRPWYCPRP,-0.408
8,RRIRDRPPRLPRPRPRPIPKPRP,-0.0116
9,RRIRFRPPRLPRPRPRPYRDPRP,-0.0081
10,RRIRDRPPRLPRPRPRPLYLPRP,-0.648
11,RRIRSRPPRLPRPRPRPQDMPRP,0.035
12,RRIRVRPPRLPRPRPRPCATPRP,0.0911
13,RRIRTRPPRLPRPRPRPQDWPRP,0.209
14,RRIRFRPPRLPRPRPRPPMRPRP,1.05
15,RRIRPRPPRLPRPRPRPFRCPRP,0.12
16,RRIRMRPPRLPRPRPRPITMPRP,0.0833
17,RRIRSRPPRLPRPRPRPGSRPRP,0.297
18,RRIRFRPPRLPRPRPRPTIAPRP,-0.27
19,RRIRARPPRLPRPRPRPHTRPRP,0.0581
20,RRIRKRPPRLPRPRPRPAEGPRP,0.305
21,RRIRFRPPRLPRPRPRPKDSPRP,-0.335
22,RRIRSRPPRLPRPRPRPHKLPRP,-0.228
23,RRIRDRPPRLPRPRPRPSNYPRP,-0.29
24,RRIRSRPPRLPRPRPRPWNKPRP,-0.0158
25,RRIRIRPPRLPRPRPRPRCDPRP,-0.0753

# — the supplement of paper PMC9112550, “Optimization of the antimicrobial peptide Bac7 by deep mutational scanning” (BMC Biology, 2022)
